We go through 6 proteins from FireProtDB.

Where “and” joins values, the source holds several entries; their conditions need not be identical. Identical values can stand only once.

The conditions of the series: whole UniProt chain shown.
The mark [1] stands for this setting: Saccharolobus solfataricus (strain ATCC 35092 / DSM 1617 / JCM 11322 / P2), pH 5.5, Thermal, CD, Acetate 50 mM.
Where [2] appears, read: Staphylococcus aureus (strain NCTC 8325 / PS 47), pH 8.5, Urea, fluorescence, Tris-Cl, transition: 2, reversible: yes.
Setting [3] is: Salmonella phage P22, pH 7.3, Thermal, CD, Potassium phosphate 10 mM, KCl 100 mM, reversible: yes.
Setting [4] is: Salmonella phage P22, pH 7.5, 20 °C, GdnHCl, CD, Tris-HCl 50 mM, KCl 100 mM, reversible: yes.
The mark [5] stands for this setting: Salmonella phage P22, pH 7.5, 20 °C, GdnHCl, Fluorescence, Tris-HCl 50 mM, KCl 100 M, reversible: yes.
The mark [6] stands for this setting: Salmonella phage P22, pH 7.5, 20 °C, Urea, Fluorescence, Tris-HCl 50 mM, KCl 100 mM, reversible: yes.
Setting [7] is: Salmonella phage P22, pH 7.5, 25 °C, GdnHCl, CD, Tris-HCl 50 mM, KCl 250 mM.
[8] abbreviates: Salmonella phage P22, pH 7.5, 25 °C, GdnHCl, Fluorescence, Tris-HCl 50 mM, KCl 100 M, reversible: yes.
Where [9] appears, read: Salmonella phage P22, pH 7.5, 25 °C, Urea, CD, Tris 50 mM, KCl 50 mM.
Setting [10] is: Salmonella phage P22, pH 7.5, 25 °C, Urea, CD, Tris-Cl 10 mM, KCl 250 mM.
The mark [11] stands for this setting: Salmonella phage P22, pH 7.5, 25 °C, Urea, CD, Tris-HCl 50 mM, KCl 250 mM, reversible: yes.
The mark [12] stands for this setting: Salmonella phage P22, pH 7.5, Thermal, CD, Tris-HCl 50 mM, KCl 250 mM, reversible: yes.
Setting [13] is: Salmonella phage P22, pH 7.5, Thermal, CD, Tris-HCl 50 mM, KCl 100 M, reversible: yes.

B1: Acylphosphatase wild type, Q97ZL0 (protein)
chain: MKKWSDTEVFEMLKRMYARVYGLVQGVGFRKFVQIHAIRLGIKGYAKNLPDGSVEVVAEGYEEALSKLLERIKQGPPAAEVEKVDYSFSEYKGEFEDFETY
Take B1: the unfolding free energy (Saccharolobus solfataricus (strain ATCC 35092 / DSM 1617 / JCM 11322 / P2), pH 5.5, 28 °C, GdnHCl, CD, Acetate 50 mM) worked out at 11.6 kcal/mol. For the same protein, the unfolding free energy (Saccharolobus solfataricus (strain ATCC 35092 / DSM 1617 / JCM 11322 / P2), pH 5.5, 81 °C, GdnHCl, CD, Acetate 50 mM) worked out at 4.94 kcal/mol. Moreover, under setting [1], the Tm – broadly, the temperature at the midpoint of the melting transition – was found to be 101 °C; the “heat capacity change of unfolding” value was determined as 1.15 kcal/mol/K; the “unfolding enthalpy (van 't Hoff)” value was 105 kcal/mol.

B2: Cytochrome P450 119 wild type, Q55080 (protein)
chain: MYDWFSEMRKKDPVYYDGNIWQVFSYRYTKEVLNNFSKFSSDLTGYHERLEDLRNGKIRFDIPTRYTMLTSDPPLHDELRSMSADIFSPQKLQTLETFIRETTRSLLDSIDPREDDIVKKLAVPLPIIVISKILGLPIEDKEKFKEWSDLVAFRLGKPGEIFELGKKYLELIGYVKDHLNSGTEVVSRVVNSNLSDIEKLGYIILLLIAGNETTTNLISNSVIDFTRFNLWQRIREENLYLKAIEEALRYSPPVMRTVRKTKERVKLGDQTIEEGEYVRVWIASANRDEEVFHDGEKFIPDRNPNPHLSFGSGIHLCLGAPLARLEARIAIEEFSKRFRHIEILDTEKVPNEVLNGYKRLVVRLKSNE
On to B2, for which the Tm (Sulfolobus acidocaldarius (strain ATCC 33909 / DSM 639 / JCM 8929 / NBRC 15157 / NCIMB 11770), pH 7.4, Thermal, absorbance, Tris) stood at 91 °C.

B3: Divalent-cation tolerance protein CutA wild type, Q7SIA8 (protein)
chain: MEEVVLITVPSEEVARTIAKALVEERLAACVNIVPGLTSIYRWQGEVVEDQELLLLVKTTTHAFPKLKERVKALHPYTVPEIVALPIAEGNREYLDWLRENTG
In the case of B3, the Tm (Thermus thermophilus (strain ATCC 27634 / DSM 579 / HB8), pH 7, Thermal, DSC, potassium phosphate 50 mM, reversible: No) stood at 113 °C.

B4: Putative peptidyl-prolyl cis-trans isomerase wild type, Q2FZU9 (protein)
chain: MANYPQLNKEVQQGEIKVVMHTNKGDMTFKLFPNIAPKTVENFVTHAKNGYYDGITFHRVINDFMIQGGDPTATGMGGESIYGGAFEDEFSLNAFNLYGALSMANSGPNTNGSQFFIVQMKEVPQNMLSQLADGGWPQPIVDAYGEKGGTPWLDQKHTVFGQIIDGETTLEDIANTKVGPQDKPLHDVVIESIDVEE
Regarding B4, under setting [2], the denaturant m value was 0.85 kcal/mol/M and 1.18 kcal/mol/M; the “denaturant midpoint (higher = more stable)” value (“denaturant midpoint” for short) was 3.19 M and 1.83 M; the unfolding free energy is 2.66 kcal/mol and 2.17 kcal/mol.

B5: Cytidine deaminase wild type, Q9S3M0 (protein)
chain: MDVEKLIAESKKAREQAYVPYSKFPVGAALLAEDGTIYHGCNIENSAYSMTNCAERTAFFKAVSDGVRSFKALAVVADTEGPVSPCGACRQVIAEFCNGSMPVYLTNLKGDIEETTVAKLLPGAFSKEDLSYAAEQ
On to B5, for which, under “Sporosarcina psychrophila, pH 7, 25 °C, GdnHCl, CD, potassium phosphate 20 mM, reversible: no”, the unfolding free energy was 3 kcal/mol.

B6: Transcriptional repressor arc wild type, P03050 (protein)
chain: MKGMSKMPQFNLRWPREVLDLVRKVAEENGRSVNSEIYQRVMESFKKEGRIGA
With B6, the Tm under setting [3] came to 54 °C; the Tm (Salmonella phage P22, pH 7.5, 25 °C, Thermal, CD, Tris-HCl 50 mM, KCl 50 mM) was 56.8 °C; the Tm (Salmonella phage P22, pH 7.5, Thermal, CD, Potassium phosphate 10 mM, KCl 100 mM) stood at 54 °C; the midpoint of thermal melting (Tm) (Salmonella phage P22, pH 7.5, Thermal, CD, Tris-HCl 50 mM, KCl 50 mM) was found to be 56.8 °C; the Tm under setting [12] was 58.3 °C and 59 °C and 57.9 °C; the Tm under setting [13] amounted to 53.4 °C. The “heat capacity change of unfolding” value under setting [3] was found to be 1.6 kcal/mol/K. Also, the “unfolding enthalpy (van 't Hoff)” value is, setting by setting: under setting [3], 71 kcal/mol; under setting [12], 62.3 kcal/mol and 58.5 kcal/mol; under setting [13], 55.2 kcal/mol. Further, the unfolding free energy came to 7.3 kcal/mol under setting [3]; 11.1 kcal/mol under setting [4]; 9.97 kcal/mol under setting [5]; 9.58 kcal/mol under setting [6]; 10.3 kcal/mol under setting [7]; 10.1 kcal/mol under setting [8]. The unfolding free energy is, setting by setting: (Salmonella phage P22, pH 7.5, 25 °C, Thermal, CD, Tris-HCl 50 mM, KCl 250 mM) 11 kcal/mol; under setting [9], 10.4 kcal/mol; under setting [10], 9.92 kcal/mol; under setting [11], 6.3 kcal/mol and 10.9 kcal/mol and 11 kcal/mol. For the same protein, the denaturant m value reads like this: under setting [4], 3.27 kcal/mol/M; under setting [5], 2.98 kcal/mol/M; under setting [6], 1.37 kcal/mol/M; under setting [7], 3 kcal/mol/M; under setting [8], 3.03 kcal/mol/M; under setting [9], 1.5 kcal/mol/M. For the same protein, the denaturant m value runs as follows: under setting [10], 1.21 kcal/mol/M; under setting [11], 1.36 kcal/mol/M and 1.57 kcal/mol/M and 1.64 kcal/mol/M. In addition, the “denaturant midpoint” value under setting [6] stood at 6.7 M, the “denaturant midpoint” value under setting [7] amounted to 1.1 M and the “denaturant midpoint” value under setting [11] is 4.65 M.
